Consider one molecule from patent publication US20200061153A1 (BAYLOR COLLEGE OF MEDICINE, published 2020).

Test [1] addresses T1, recombinant human vimentin (rhVim), expressed from pQE-30 in E. coli M15 (human, UniProt P08670 2-466).
T1 construct: also called pQE-30-hVim product; not shown: polyhistidine tag from pQE-30 (Ni2+ purification, anti-polyhistidine detection)
As to the kind of experiment: ELISA, wells coated with PSGL-1/Fc 10 µg/mL in DPBS, blocked with 1% BSA, rhVim added at rising concentrations, detection with HRP-conjugated anti-polyhistidine antibody. How it is done:
rhVim binding assay—To determine which proteins to which rhVim binds, we performed enzyme linked immunosorbent assays (ELISA) as we described (Da, et al., 2014). Immunoplate wells were coated overnight at 4° C. with P-selectin/Fc or PSGL-1/Fc (10 μg/ml in DPBS). Wells were washed with DPBS and then blocked with 1% BSA for one hour. After blocking, rhVim was added in increasing concentrations and detected using a HRP-conjugated anti-polyhistidine antibody. Tetramethylbenzidine solution was used as the substrate and the reactions were stopped using 1 N sulfuric acid. All ELISA measurements were performed in duplicate and the data reported were averaged from two separate experiments performed.
The effect of rhVim blocking PMN adhesion to P-selectin could be attributed to rhVim either affecting P-selectin, PSGL-1, or both. Therefore, ELISAs were performed with wells coated either PSGL-1/Fc protein (10 μg/mL) or P-selectin/Fc protein (10 μg/mL) and incubated with increasing concentrations of rhVim to each well. Increasing amounts of rhVim bound to P-selectin/Fc protein and reached saturation at 20 μg/mL. There was no binding of rhVim to PSGL-1/Fc at any concentration (FIG. 15C).
(In general: In an ELISA, binding on a coated surface is turned into a signal by an enzyme label.)

In test [2] the target is T2, soluble recombinant human vimentin (srhVim), full length, expressed from pET30 in E. coli (human, UniProt P08670 2-466).
T2 construct: also called full length vimentin; full-length Vimentin; not shown: His tag from pET30 (Ni2+ purification, anti-His detection)
T2 sequence (P08670 2-466): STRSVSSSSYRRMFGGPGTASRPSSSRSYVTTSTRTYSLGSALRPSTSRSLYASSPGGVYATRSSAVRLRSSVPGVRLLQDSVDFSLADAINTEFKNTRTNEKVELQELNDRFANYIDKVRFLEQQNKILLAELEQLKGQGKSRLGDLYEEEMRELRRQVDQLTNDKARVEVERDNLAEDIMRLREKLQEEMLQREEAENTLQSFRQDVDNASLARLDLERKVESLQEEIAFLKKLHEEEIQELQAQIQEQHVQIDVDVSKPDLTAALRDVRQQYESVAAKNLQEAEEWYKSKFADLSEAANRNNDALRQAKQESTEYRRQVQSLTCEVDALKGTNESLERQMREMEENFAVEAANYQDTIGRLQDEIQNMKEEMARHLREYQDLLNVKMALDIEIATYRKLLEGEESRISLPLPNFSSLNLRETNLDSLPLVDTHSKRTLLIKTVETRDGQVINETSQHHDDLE
As to the kind of experiment: ELISA, wells coated with PSGL-1/Fc 10 µg/mL, srhVim added at rising concentrations, detection with anti-His/HRP. How it is done:
The observations in these experiments, in certain embodiments, are attributed to srhVim either affecting P-selectin, PSGL-1, or both. ELISA was performed by coating 96-well plates with either PSGL-1/Fc protein (10 μg/mL), P-selectin/Fc protein (10 μg/mL), or BSA (10 μg/mL) and adding various concentrations of srhVim to each well. Detection was through anti-His/HRP antibodies. Increasing amounts of srhVim bound to P-selectin/Fc protein and reached saturation at 20 μg/mL. There was no binding of srhVim to PSGL-1/Fc (FIG. 6B).

T1 sequence (P08670 2-466): as above

B1: PSGL-1/Fc protein (Fc fusion, UniProt Q14242 42-295, looked up)
chain: QATEYEYLDYDFLPETEPPEMLRNSTDTTPLTGPGTPESTTVEPAARRSTGLDAGGAVTELTTELANMGNLSTDSAAMEIQTTQPAATEAQTTQPVPTEAQTTPLAATEAQTTRLTATEAQTTPLAATEAQTTPPAATEAQTTQPTGLEAQTTAPAAMEAQTTAPAAMEAQTTPPAAMEAQTTQTTAMEAQTTAPEATEAQTTQPTATEAQTTPLAAMEALSTEPSATEALSMEPTTKRGLFIPFSVSSVTHKG
notes: Bought from R & D Systems; the species is not clearly stated; not shown: Fc part
For B1, the binding result in test [1] and in test [2] was “no binding (tested: 40 µg/mL)” in each case.
